Data published in paper PMC9896449.

How the values were obtained:
[1] = molecular target: BiShAb0201 (ShAb02 VNAR - (GGGGS)5 - ShAb01 VNAR - human IgG1 Fc) (nurse shark (Ginglymostoma cirratum)); assay: BLI
[2] = molecular target: ShAb01H02K (knob-in-hole heterodimer of ShAb01-Fc and ShAb02-Fc) (nurse shark (Ginglymostoma cirratum)); assay: BLI

Substance | Kd [1] [nM] | koff [1] [s⁻¹] | kon [1] [M⁻¹ s⁻¹] | Kd [2] [nM] | koff [2] [s⁻¹] | kon [2] [M⁻¹ s⁻¹]
SARS-CoV-2 RBD B.1.1.529, Omicron BA.1 (from UniProt P0DTC2 331-527) (domain or fragment) | 15.1 | 0.00154 | 102000 | 24.5 | 0.00175 | 71300
SARS-CoV-2 RBD Omicron BA.4/5 (from UniProt P0DTC2 331-527) (domain or fragment) | 14.9 | 0.000767 | 51500 | 5.6 | 0.000692 | 123000
SARS-CoV-2 RBD B.1.1.529.2.12.1, Omicron BA.2.12.1 (from UniProt P0DTC2 331-527) (domain or fragment) | 46.9 | 0.000922 | 19700 | 17.4 | 0.00171 | 98500
SARS-CoV-2 RBD B.1.1.529.2, Omicron BA.2 (from UniProt P0DTC2 331-527) (domain or fragment) | 33.2 | 0.000749 | 22600 | 24.1 | 0.00186 | 77000
